Data: patent US20210284694A1 (published 2021)
Blank lines part the entries; values can stand above or below the binder they belong to. Starred links: 1 amine or outer side, 2 acyl side, 3 side chain; linkers in the order of their positions; H or OH if unused. Positions of bridges follow the written chain, without caps; N, C: chain ends. Non-standard residues stand in square brackets, D forms with d. Phe(4-OMe) = COc1ccc(C[C@H](N[*:1])C(=O)[*:2])cc1; Trp(5-F) = N[C@@H](Cc1c[nH]c2ccc(F)cc12)C(=O)O; mXylylene = c1cc(C[*:1])cc(C[*:2])c1; αMeP = C[C@@]1(C(=O)O)CCCN1; Mpa = O=C(O)CCS

Tests used:
biotinylated PCSK9 [1] = biological target: T1, biotinylated PCSK9 (UniProt Q8NBP7 31-692, limits assumed, biotinylated); assay: method of the KD not told; tracer of the Alexa FRET Standard assay
T1 construct: also called europium-labeled PCSK9

biotinylated PCSK9 [2] = biological target: T1, biotinylated PCSK9; assay: method of the KD not told; tracer of the Alexa FRET Plus assay

T1 sequence (Q8NBP7 31-692 limits assumed): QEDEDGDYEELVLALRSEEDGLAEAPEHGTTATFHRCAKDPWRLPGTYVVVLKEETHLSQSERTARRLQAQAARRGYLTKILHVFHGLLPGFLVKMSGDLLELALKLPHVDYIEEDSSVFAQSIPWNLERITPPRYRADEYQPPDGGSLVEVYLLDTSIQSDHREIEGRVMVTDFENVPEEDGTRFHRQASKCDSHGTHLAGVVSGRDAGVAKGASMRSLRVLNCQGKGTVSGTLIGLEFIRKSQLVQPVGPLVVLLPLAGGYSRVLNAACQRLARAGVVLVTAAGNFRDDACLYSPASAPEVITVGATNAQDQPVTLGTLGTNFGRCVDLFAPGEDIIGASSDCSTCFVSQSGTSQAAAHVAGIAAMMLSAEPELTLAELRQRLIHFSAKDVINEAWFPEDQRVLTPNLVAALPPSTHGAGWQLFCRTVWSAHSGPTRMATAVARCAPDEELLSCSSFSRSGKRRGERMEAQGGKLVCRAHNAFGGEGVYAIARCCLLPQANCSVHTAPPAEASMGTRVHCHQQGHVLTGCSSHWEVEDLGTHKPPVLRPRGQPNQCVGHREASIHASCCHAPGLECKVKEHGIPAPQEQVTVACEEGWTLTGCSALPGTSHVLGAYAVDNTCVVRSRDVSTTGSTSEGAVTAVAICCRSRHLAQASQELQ

- Kd (biotinylated PCSK9 [1]): 83 nM
B1: Reagent A (peptide)
peptide: [Mpa]K(AlexaFluor647)G[Trp(5-F)][Trp(5-F)]DHY[αMeP]C-NH2
modifications: linker N-10 via mXylylene
notes: also called AlexaFluor647 (AF) tagged cyclic peptide; AF cyclic peptide

- Kd (biotinylated PCSK9 [2]): 35 nM
B2: Reagent B (peptide)
peptide: [Mpa]K(AlexaFluor647)[dA][Trp(5-F)][Trp(5-F)]DH[Phe(4-OMe)][αMeP]C-NH2
modifications: linker N-10 via mXylylene
notes: as for B1
